# In article PMC9376089, “Reformation of the chondroitin sulfate glycocalyx enables progression of AR-independent prostate cancer”:
# Experiments:
# [1] = biological target: T1, AR-DBD (EMSA) (UniProt P10275 556-629); assay: EMSA; 100 fmol probe, AR-DBD titration, poly(dI-dC); BLI: 20 mM Tris pH 8, 150 mM NaCl, 5% glycerol, 2 mM DTT, 0.1 mM PMSF, temperature not stated; EMSA: 10 mM Tris pH 7.5, 50 mM KCl, DTT (1 mM); 2.5 mM with 0.25%; conditions: protein: recombinant, chain copies: 2, blunt
# [2] = biological target: T1, AR-DBD (EMSA); assay: competition; 20 nmol unlabeled competitor (so in the source) vs labeled TMPRSS2-ARE; BLI: 20 mM Tris pH 8, 150 mM NaCl, 5% glycerol, 2 mM DTT, 0.1 mM PMSF, temperature not stated; EMSA: 10 mM Tris pH 7.5, 50 mM KCl, DTT (1 mM); 2.5 mM with 0.25%; conditions: protein: recombinant; chain copies: 2; blunt
# T1 sequence (P10275 556-629): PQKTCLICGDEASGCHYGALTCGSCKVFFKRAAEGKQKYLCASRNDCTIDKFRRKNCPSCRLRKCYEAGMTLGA
binder,measurement,setting,value
PSA-ARE (EMSA probe) (dsDNA) DNA 1: TACAAATAGGTTCTTGGAGTACTTTACTAGGCATGGACAATG DNA 2: CATTGTCCATGCCTAGTAAAGTACTCCAAGAACCTATTTGTA,binding result,[1]; label: 5' IRD700 on strand 1,binds
CHST11-ARE (EMSA probe) (dsDNA) DNA 1: AGATGCCCCAGTGTTCTAG DNA 2: CTAGAACACTGGGGCATCT,binding result,[1],binds
CHST11-ARE (unlabeled competitor) (dsDNA) DNA 1: AGATGCCCCAGTGTTCTAG DNA 2: CTAGAACACTGGGGCATCT,binding result,[2],binds
